In US20250263489A1:
Changes are numbered by the printed parent chain.

Columns and labels:
[1] = molecular target: recombinant human IGF-1 receptor histidine tag (305-GR-050, R&D SYSTEMS) (human) (UniProt P08069); assay: antigen ELISA, plate-coated human recombinant IGF-1R, antibody at 5 nM, relative to IGF11-16
[2] = molecular target: recombinant human IGF-1 receptor histidine tag (305-GR-050, R&D SYSTEMS) (human) (UniProt P08069); assay: SPR, Biacore T200, summary sentence of Table 16
[3] = molecular target: recombinant human IGF-1 receptor histidine tag (305-GR-050, R&D SYSTEMS) (human) (UniProt P08069); assay: SPR, Biacore T200, 40 C, IGF-1R-His captured by anti-histidine-tag antibody, antibody as analyte, single cycle kinetics, 1:1 Binding model

B1: IGF11-16 with alanine substitution of W at position 32 (CDR-L1) (antibody, V domains shown)
VH: QIQLQQPGAELVKPGASVKLSCKAPGYTFTSYWMHWVKQRPGQGLEWIGETNPSNSVTNYNEKFKSKATLTVDKSSSTAYMQLSSLTSEDSAVYYCTIGRGRGFAYWGQGTLVTVSA
VL: DIQMNQSPSSLSASLGDTITITCRASQNINFALSWCQQKPGNIPKLLIYKASNLHTGVPSRFSGSGSGTDFTLTISSLQPEDIATYYCLQGQSYPYTFGGGTKLEIK
- Binding @5 nM vs IGF11-16 (% vs IGF11-16) [1]: 14

B2: IGF11-16 with alanine substitution of H at position 35 (CDR-H1) (antibody, mouse IgG1, V domains shown)
VH: B1 VH with H35A
VL: B1 VL with A32W
- Binding vs IGF11-16 (EC50) (% vs IGF11-16) [1]: 49

B3: IGF11-16 with alanine substitution of N at position 52 (CDR-H2) (antibody, mouse IgG1, V domains shown)
VH: B1 VH with N52A
VL: B1 VL with A32W
- Binding vs IGF11-16 (EC50) (% vs IGF11-16) [1]: 21

B4: humanized antibody hIGF25_PS (antibody, V domains shown)
VH: QVQLVQSGAEVKKPGASVKVSCKAPGYTFTSYWMHWVRQAPGQGLEWMGETNPSSSVTNYAQKFQGRVTLTVDTSTSTAYMELSSLRSEDTAVYYCTIGRGRGFAYWGQGTLVTVSS
VL: B1 VL with N5T, L15V, T18R, I19V, A32W, C36Y, N42K, I43V, I83V
- Kd [2]: < 0.1 nM
- Kd [3]: 0.051 nM
- koff [3]: 0.000135 s⁻¹
- kon [3]: 2.87e+06 M⁻¹ s⁻¹

B5: IGF11-16 with alanine substitution of N at position 55 (CDR-H2) (antibody, mouse IgG1, V domains shown)
VH: B1 VH with N55A
VL: B1 VL with A32W
- Binding vs IGF11-16 (EC50) (% vs IGF11-16) [1]: 94

B6: IGF11-16 with alanine substitution of N at position 59 (CDR-H2) (antibody, mouse IgG1, V domains shown)
VH: B1 VH with N59A
VL: B1 VL with A32W
- Binding vs IGF11-16 (EC50) (% vs IGF11-16) [1]: 112

B7: IGF11-16 with alanine substitution of E at position 50 (CDR-H2) (antibody, mouse IgG1, V domains shown)
VH: B1 VH with E50A
VL: B1 VL with A32W
- Binding vs IGF11-16 (EC50) (% vs IGF11-16) [1]: 9

B8: humanized antibody hIGF13_PS (antibody, V domains shown)
VH: B4 VH with V93T
VL: B1 VL with N5T, L15V, T18R, I19V, A32W, C36Y, N42K, I43V, I83V
- Kd [2]: < 0.1 nM
- Kd [3]: 0.0578 nM
- koff [3]: 0.000158 s⁻¹
- kon [3]: 2.85e+06 M⁻¹ s⁻¹

B9: IGF11-16 with alanine substitution of F at position 64 (CDR-H2) (antibody, mouse IgG1, V domains shown)
VH: B1 VH with F64A
VL: B1 VL with A32W
- Binding vs IGF11-16 (EC50) (% vs IGF11-16) [1]: 84

B10: mouse parent antibody IGF11-16 (antibody, mouse IgG1, kappa, V domains shown)
VH: B1 VH
VL: DIQMNQSPSSLSASLGDTITITCRASQNINFWLSWCQQKPGNIPKLLIYKASNLHTGVPSRFSGSGSGTDFTLTISSLQPEDIATYYCLQGQSYPYTFGGGTKLEIKR
- Kd [3]: 0.0314 nM
- koff [3]: 7.72e-05 s⁻¹
- kon [3]: 2.67e+06 M⁻¹ s⁻¹

B11: IGF11-16 with alanine substitution of W at position 33 (CDR-H1) (antibody, mouse IgG1, V domains shown)
VH: B1 VH with W33A
VL: B1 VL with A32W
- Binding vs IGF11-16 (EC50) (% vs IGF11-16) [1]: 9

B12: IGF11-16 with alanine substitution of R at position 102 (CDR-H3) (antibody, mouse IgG1, V domains shown)
VH: B1 VH with R102A
VL: B1 VL with A32W
- Binding vs IGF11-16 (EC50) (% vs IGF11-16) [1]: 9

B13: IGF11-16 with alanine substitution of S at position 56 (CDR-H2) (antibody, mouse IgG1, V domains shown)
VH: B1 VH with S56A
VL: B1 VL with A32W
- Binding vs IGF11-16 (EC50) (% vs IGF11-16) [1]: 108

B14: IGF11-16 with alanine substitution of S at position 54 (CDR-H2) (antibody, mouse IgG1, V domains shown)
VH: B1 VH with S54A
VL: B1 VL with A32W
- Binding vs IGF11-16 (EC50) (% vs IGF11-16) [1]: 97
